Data on 3 molecules can be found in patent US8889130B2, “Treatment of osteoarthritis and pain” (Abbvie Inc., priority 2011, dated 2014).

A short description of data set [1]: Size exclusion chromatography (SEC): physical homogeneity and in vitro stability. Type of data set: physicochemical. The note with it: 0.2-0.4 mg/ml in PBS, SEC. The method, then:
For measuring molecular weight (MW) of light and heavy chains of DVD-Ig binding protein, 10 μL of DVD-Ig molecule (0.8 μg/μL) was reduced by 1.0 M DTT solution (5 μL). A PLRP-S, 8μ, 4000 A, and 1×150 mm protein column (Michrom BioResource, Auburn, Mass.) was used to separate heavy and light chains of DVD-Ig molecule. Agilent HP1100 Capillary HPLC (Agilent Technologies Inc., Pala Alto, Calif.) was used with the mass spectrometer QSTAR (Applied Biosystems, Foster City, Calif.). The valco valve was set at 10 minutes to switch the flow from waste to MS for desalting sample. Buffer A was 0.02% TFA, 0.08% FA, 0.1% ACN and 99.8% HPLC-H2O. Buffer B contained 0.02% TFA, 0.08% FA, 0.1% HPLC-H2O, and 99.8% ACN. The HPLC flow rate was 50 μL/minute and the sample injection volume was […]. The temperature of the column oven was set at 60° C., and separation gradient was: 5% B for 5 minutes; 5% B to 65% B for 35 minutes; 65% B to 95% B for another 5 minutes, and 95% B to 5% B for 5 minutes. TOFMS scan was from 800 to 2500 amu, and cycles were 3600. To determine the MW of full length DVD-Ig binding protein, a Protein MicroTrap cartridge (Michrom BioResource, Auburn, Mass.) was used for desalting the sample. The HPLC gradient was: 5% B for 5 minutes; 5% B to 95% B in 1 minute; and from 95% B to 5% B in another 4 minutes. The QSTAR TOFMS scan was from 2000 to 3500 amu, and cycles were 899. All MS raw data were analyzed using the Analyst QS software (Applied Biosystems). For SEC analysis of the DVD-Ig binding protein, purified DVD-Ig binding protein and chimeric Abs, in PBS, were applied on a Superose 6 10/300 G2, 300×10 mm column (Amersham Bioscience, Piscataway, N.J.). An HPLC instrument, Model 10A (Shimadzu, Columbia, Md.) was used for SEC. All proteins were determined using UV detection at 280 nm and 214 nm. The elution was isocratic at a flow rate of 0.5 mL/minute. For stability study, samples in the concentration range of 0.2-0.4 mg/ml in PBS underwent 3 freeze-thaw cycles between −80° C. and 25° C., or were incubated at 4° C., 25° C., or 40° C., for 4 weeks and 8 weeks, followed by SEC analysis.
In order to determine the precise molecular weight of the DVD-Ig binding proteins, mass spectrometry was employed. […] To further study the physical properties of DVD-Ig binding protein in solution, size exclusion chromatography (SEC) was used to analyze each protein.
The physical stability of DVD-Ig was tested as follows. Purified antibodies in the concentration range of 0.2-0.4 mg/ml in PBS underwent 3 freeze-thaw cycles between −80° C. and 25° C., or were incubated at 4° C., 25° C., or 40° C., for 4 weeks and 8 weeks, followed by analysis using size exclusion chromatography (SEC) analysis (see Table 12).
A general note: In gel filtration, larger molecules generally elute earlier.

The target of data set [2] is hIL-1β (Homo sapiens, UniProt P01584). The data set is described as follows: Surface plasmon resonance (Biacore) binding kinetics and affinity to hIL-1β. The note with it: antigen hIL-1β. How it is done: (§1) The kinetics of DVD-Ig molecules binding to rhIL1-α and rhIL1-β was determined by surface plasmon resonance-based measurements with a Biacore 3000 instrument (Biacore AB, Uppsala, Sweden) using HBS-EP (10 mM HEPES, pH 7.4, 150 mM NaCl, 3 mM EDTA, and 0.005% surfactant P20) at 25° C. All chemicals were obtained from Biacore AB (Uppsala, Sweden) or otherwise from a different source as described herein. Approximately, 5000 RU of goat anti-human IgG Fcγ fragment specific polyclonal antibody (Pierce Biotechnology Inc, Rockford, Ill.) diluted in 10 mM sodium acetate (pH 4.5) was directly immobilized across a CM5 research grade biosensor chip using a standard amine coupling kit according to manufacturer's instructions and procedures at […]. Unreacted moieties on the biosensor surface were blocked with ethanolamine. Modified carboxymethyl dextran surface in flowcell 2 and 4 was used as a reaction surface. Unmodified carboxymethyl dextran without goat anti-human IgG in flow cell 1 and 3 was used as the reference surface. For kinetic analysis, rate equations derived from the 1:1 Langmuir binding model were fitted simultaneously to association and dissociation phases of all ten injections (using global fit analysis) using the Bioevaluation 4.0.1 software. Purified DVD-Ig samples were diluted in HEPES-buffered saline for capture across goat anti-human IgG Fc specific reaction surfaces and injected over reaction matrices at a flow rate of […]. The association and dissociation rate constants, kon (M-1s-1) and koff (s-1) were determined under a continuous flow rate of […]. Rate constants were derived by making kinetic binding measurements at ten different antigen concentrations ranging from 1.25 to 1000 nM. The equilibrium dissociation constant (M) of the reaction between DVD-Ig molecule and rhIL1α/β was then calculated from the kinetic rate constants by the following formula: KD=koff/kon. Aliquots of rhIL1α/β samples were also simultaneously injected over a blank reference and reaction CM surface to record and subtract any nonspecific binding background to eliminate the majority of the refractive index change and injection noise. Surfaces were regenerated with two subsequent […] injections of 10 mM Glycine (pH 1.5) at a flow rate of […]. The anti-Fc antibody immobilized surfaces were completely regenerated and retained their full capture capacity over twelve cycles. The apparent stoichiometry of the captured DVD-Ig-rhIL1α/β complex was calculated under saturating binding conditions (steady-state equilibrium) using the following formula: […]
(Surface plasmon resonance follows binding to a sensor surface in real time, without labels.)

The target in data set [3] is T1, hIL-1α (Homo sapiens, UniProt P01583).
T1 sequence (P01583 113-271): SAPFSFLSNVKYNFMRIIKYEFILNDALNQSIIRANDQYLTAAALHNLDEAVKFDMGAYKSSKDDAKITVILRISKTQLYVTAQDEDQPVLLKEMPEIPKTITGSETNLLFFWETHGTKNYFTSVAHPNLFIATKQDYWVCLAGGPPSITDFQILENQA
Nature of the data set: Surface plasmon resonance (Biacore) binding kinetics and affinity to hIL-1α. The note with it: antigen hIL-1α. The method, then: as §1

[4] abbreviates: 3xFreeze-Thaw between −80° C. and 25° C.

Sequence of hIL-1β (P01584 117-269): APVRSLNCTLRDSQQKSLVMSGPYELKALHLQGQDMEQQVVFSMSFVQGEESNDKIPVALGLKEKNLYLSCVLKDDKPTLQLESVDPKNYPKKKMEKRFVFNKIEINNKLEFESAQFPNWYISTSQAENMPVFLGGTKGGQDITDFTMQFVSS

B1: 13F5.G5-Ch: murine-human chimeric form of 13F5.G5 (anti-hIL-1β) with human constant region (antibody, V domains shown)
VH: QVQLQQSGAELVRPGSSVKISCKASGYAFSSYWMNWVKQRPGQGLEWIGQIYPGDGDTNYNGKFKGKATLTADKSSSTSYMQLSGLTSEDSAMYFCVRFPTGNDYYAMDYWGQGTSVTVSS
VL: NIVLTQSPASLAVSLGQRATISCRASESVDSYGNSYMHWYQQKPGQPPKLLIYLASNLESGVPARFSGSGSRTDFTLTIDPVEADDAATYYCQQNNEDPFTFGSGTKLEIKR
For orientation: koff means the first-order rate constant of dissociation. A high value points to a short-lived complex. For orientation: kon means the rate constant with which the complex forms. Turning to B1, the “Ab (intact antibody)” value in data set [1] (setting [4]) was 87.0 percentage; in data set [1] (4° C. @ 4 Wks), 95.8 percentage; in data set [1] (4° C. @ 8 Wks) it was 97.8 percentage; in data set [1] (25° C. @ 4 Wks), 100.0 percentage; in data set [1] (25° C. @ 8 Wks) it was 97.5 percentage; in data set [1] (40° C. @ 4 Wks), 78.1 percentage. For the same molecule, the “Ab (intact antibody)” value in data set [1] (40° C. @ 8 Wks) turned out to be 65.4 percentage. The “Agg (aggregates)” value is given as 13.0 percentage in data set [1] (setting [4]); 4.2 percentage in data set [1] (4° C. @ 4 Wks); 2.2 percentage in data set [1] (4° C. @ 8 Wks); 0.0 percentage in data set [1] (25° C. @ 4 Wks); 1.4 percentage in data set [1] (25° C. @ 8 Wks); 20.3 percentage in data set [1] (40° C. @ 4 Wks). The “Agg (aggregates)” value in data set [1] (40° C. @ 8 Wks) turned out to be 34.6 percentage. For the same molecule, the “Frgm (fragments)” value is 0.0 percentage in data set [1] (setting [4]); 0.0 percentage in data set [1] (4° C. @ 4 Wks); 0.0 percentage in data set [1] (4° C. @ 8 Wks); 0.0 percentage in data set [1] (25° C. @ 4 Wks); 1.0 percentage in data set [1] (25° C. @ 8 Wks); 1.6 percentage in data set [1] (40° C. @ 4 Wks). For the same molecule, the “Frgm (fragments)” value in data set [1] (40° C. @ 8 Wks) was determined as 0.0 percentage. Also, the “koff” value in data set [2] was found to be 0.000654 s⁻¹. Also, the “kon” value in data set [2] was 1.41e+06 M⁻¹ s⁻¹.

B2: 3D12.E3-Ch: murine-human chimeric form of 3D12.E3 (anti-hIL-1α) with human constant region (antibody, V domains shown)
VH: QIQLVQSGPELKKPGETVKISCKASGYTFRNYGMNWVKQAPGKDLKRMAWINTYTGESTYADDFKGRFAFSLETSASTAYLQINNLKNEDTATYFCARGIYYYGSSYAMDYWGQGTSVTVSS
VL: NIQMTQTTSSLSASLGDRVTISCRASQDISNCLNWYQQKPDGTVKLLIYYTSRLHSGVPSRFSGSGSGTDYSLTISNLEQEDIATYFCQQGKTLPYAFGGGTKLEINR
Take B2: the “Ab (intact antibody)” value in data set [1] (setting [4]) came to 98.28 percentage; in data set [1] (4° C. @ 4 Wks), 99.15 percentage; in data set [1] (4° C. @ 8 Wks), 90.33 percentage; in data set [1] (25° C. @ 4 Wks), 98.71 percentage; in data set [1] (25° C. @ 8 Wks), 60.55 percentage; in data set [1] (40° C. @ 4 Wks), 98.35 percentage. The “Ab (intact antibody)” value in data set [1] (40° C. @ 8 Wks) is 81.47 percentage. In addition, the “Agg (aggregates)” value worked out at 1.72 percentage in data set [1] (setting [4]); 0.85 percentage in data set [1] (4° C. @ 4 Wks); 5.35 percentage in data set [1] (4° C. @ 8 Wks); 1.29 percentage in data set [1] (25° C. @ 4 Wks); 1.65 percentage in data set [1] (40° C. @ 4 Wks); 4.74 percentage in data set [1] (40° C. @ 8 Wks). For the same molecule, the “Frgm (fragments)” value came to 0.00 percentage in data set [1] (setting [4]); 0.00 percentage in data set [1] (4° C. @ 4 Wks); 4.32 percentage in data set [1] (4° C. @ 8 Wks); 0.00 percentage in data set [1] (25° C. @ 4 Wks); 38.34 percentage in data set [1] (25° C. @ 8 Wks); 0.00 percentage in data set [1] (40° C. @ 4 Wks). The “Frgm (fragments)” value in data set [1] (40° C. @ 8 Wks) is reported as 13.79 percentage. Moreover, the “koff” value in data set [3] was 0.000552 s⁻¹. For the same molecule, in data set [3], the “kon” value came to 412000 M⁻¹ s⁻¹.

B3: 3D12.E3: murine monoclonal antibody to human IL-1α; VH SEQ ID NO: 89, VL SEQ ID NO: 90 (antibody, listed as Mus musculus, V domains shown)
VH: B2 VH
VL: B2 VL
As for B3, in data set [3], the dissociation rate constant (koff) stood at 0.000713 s⁻¹ and the “kon” value came to 643000 M⁻¹ s⁻¹.
